Source: patent US20220251198A1

Experiments:
[1] = target: human FcγRIIIA_158F extracellular domain (human) (UniProt P08637); assay: SPR (Biacore), FcγR ECD analyte; N=1
[2] = target: human FcγRIIIA_158V extracellular domain (human) (UniProt P08637); assay: SPR (Biacore), FcγR ECD analyte; N=1
[3] = target: human FcγRIIA_131H extracellular domain (human) (UniProt P12318); assay: SPR (Biacore), FcγR ECD analyte; N=1
[4] = target: human FcγRIIb extracellular domain (human) (UniProt P31994); assay: SPR (Biacore), FcγR ECD analyte; N=1
human FcγRIIb extracellular domain (human), sequence (P31994 43-217): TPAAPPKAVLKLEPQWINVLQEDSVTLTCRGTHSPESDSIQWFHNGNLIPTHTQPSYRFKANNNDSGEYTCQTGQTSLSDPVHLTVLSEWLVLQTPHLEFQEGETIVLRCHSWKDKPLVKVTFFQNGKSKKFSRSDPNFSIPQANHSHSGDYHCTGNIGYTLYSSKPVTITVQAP

[5] = target: human FcγRI extracellular domain (human) (UniProt P12314); assay: SPR (Biacore), FcγR ECD analyte; N=1
human FcγRI extracellular domain (human), sequence (P12314 16-292): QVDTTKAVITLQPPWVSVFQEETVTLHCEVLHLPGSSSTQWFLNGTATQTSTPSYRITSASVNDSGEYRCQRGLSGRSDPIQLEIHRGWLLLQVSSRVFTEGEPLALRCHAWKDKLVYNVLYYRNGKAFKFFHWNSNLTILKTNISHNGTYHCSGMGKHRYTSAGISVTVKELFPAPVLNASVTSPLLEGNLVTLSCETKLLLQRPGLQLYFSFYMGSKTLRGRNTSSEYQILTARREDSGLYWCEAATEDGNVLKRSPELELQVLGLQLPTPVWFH

[6] = target: human FcγRIIA_131R extracellular domain (human) (UniProt P12318); assay: SPR (Biacore), FcγR ECD analyte; N=1
human FcγRIIA_131R extracellular domain (human), sequence (P12318 34-217 H167R): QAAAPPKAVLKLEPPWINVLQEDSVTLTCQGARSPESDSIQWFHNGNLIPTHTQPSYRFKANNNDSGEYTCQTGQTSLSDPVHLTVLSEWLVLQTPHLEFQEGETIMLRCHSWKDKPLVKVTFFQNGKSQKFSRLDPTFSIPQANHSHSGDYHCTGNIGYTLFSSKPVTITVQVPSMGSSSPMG

[7] = target: human FcγRIIIA_158F extracellular domain (human) (UniProt P08637); assay: SPR at 25 C, antibody captured on Protein A, FcγR ECD analyte, steady state
[8] = target: human FcγRIIA_131R extracellular domain (human) (UniProt P12318); assay: as above
[9] = target: human FcγRIIA_131H extracellular domain (human) (UniProt P12318); assay: as above
[10] = target: human FcγRIIIA_158V extracellular domain (human) (UniProt P08637); assay: as above

human FcγRIIIA_158V extracellular domain (human), sequence (P08637 17-208 F176V): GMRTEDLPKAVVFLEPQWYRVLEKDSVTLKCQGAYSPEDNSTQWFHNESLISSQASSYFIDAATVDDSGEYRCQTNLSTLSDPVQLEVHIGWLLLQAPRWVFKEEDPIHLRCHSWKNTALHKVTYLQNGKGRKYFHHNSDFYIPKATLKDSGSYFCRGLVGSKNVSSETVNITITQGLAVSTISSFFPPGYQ
human FcγRIIA_131H extracellular domain (human), sequence (P12318 34-217): as the sequence (P12318 34-217 H167R) above, with R134H counted along it
human FcγRIIIA_158F extracellular domain (human), sequence (P08637 17-208): as the sequence (P08637 17-208 F176V) above, with V160F counted along it

Kd [1] [nM] | Kd [2] [nM] | Kd [3] [nM] | Kd [4] [nM] | Kd [5] [nM] | Kd [6] [nM] | Kd [7] [nM] | Kd [8] [nM] | Kd [9] [nM] | Kd [10] [nM] | Substance
9800 | 2480 | 5100 | 4300 | 0.511 | – | – | – | – | – | CD200R antibody IgG1 A330S + P331S + S267G
10800 | 1660 | 3310 | 4990 | 0.168 | 820 | – | – | – | – | CD200R antibody IgG1 A330S + S267G
2580 | – | 980 | 3410 | 0.0305 | 820 | – | – | – | – | CD200R antibody IgG1 K322A
9990 | 1650 | 5020 | 4430 | 0.0705 | 660 | – | – | – | – | CD200R antibody IgG1 K322A + S267G
– | 7350 | 2640 | 275 | 0.0687 | 60 | – | – | – | – | CD200R antibody IgG1 N325S + L328F
3110 | 450 | 1150 | 4640 | 0.0543 | 1140 | – | – | – | – | CD200R antibody IgG1 P331S
– | 2080 | 5200 | 4380 | 0.142 | 770 | – | – | – | – | CD200R antibody IgG1 P331S + S267G
4500 | 730 | 3130 | 3410 | 0.131 | 530 | – | – | – | – | CD200R antibody IgG1 S267G
2590 | – | 710 | 4200 | 0.0552 | 1030 | – | – | – | – | Hu IgG1 (antibody)
– | 5470 | 5120 | 3310 | 0.385 | 2890 | – | – | – | – | Human IgG4P control antibody
– | – | – | – | – | – | 1000 | 600 | 500 | – | IgG1 Control Antibody
– | – | – | – | – | – | – | – | – | 8900 | IgG4 PAA Control Antibody
